From paper PMC6329520, “Diversification of DNA binding specificities enabled SREBP transcription regulators to expand the repertoire of cellular functions that they govern in fungi”

Experiments:
AfSrbA DBD [1] = target: T1, AfSrbA DBD (Aspergillus fumigatus, UniProt Q4WIN1 145-266); assay: competition; details: unlabeled competitor vs labeled N1; at least one order of magnitude; Standard EMSA buffer (composition by reference), 90 min, room temperature, 6% polyacrylamide gel in 0.5x TGE; pH and salt not given
T1 sequence: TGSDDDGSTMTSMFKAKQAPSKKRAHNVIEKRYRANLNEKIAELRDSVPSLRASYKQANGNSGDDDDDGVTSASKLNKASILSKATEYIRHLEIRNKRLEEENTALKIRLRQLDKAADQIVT

CaHms1 DBD [2] = target: T2, CaHms1 DBD (Candida albicans, UniProt A0A1D8PMZ4 463-685); assay: competition; details: unlabeled competitor vs labeled N1; at least one order of magnitude; Standard EMSA buffer (composition by reference), 90 min, room temperature, 6% polyacrylamide gel in 0.5x TGE; pH and salt not given
AfSrbA DBD [3] = target: T1, AfSrbA DBD; assay: EMSA; 0-100 nM protein; Standard EMSA buffer (composition by reference), 90 min, room temperature, 6% polyacrylamide gel in 0.5x TGE; pH and salt not given; details: protein: recombinant; tags: N-terminal 6xHis or 6xHis-MBP (primers: pLIC-H3); chain copies: 2; label: 32P
CaHms1 DBD [4] = target: T2, CaHms1 DBD; assay: as above; details: protein: recombinant; tags: N-terminal 6xHis or 6xHis-MBP (primers: pLIC-H3); chain copies: 2; label: 32P
CpHms1 DBD = target: T3, CpHms1 DBD (Candida parapsilosis, UniProt G8B9T4 486-659); assay: as above; details: protein: recombinant; tags: N-terminal 6xHis or 6xHis-MBP (primers: pbRZ75); chain copies: 2; label: 32P
T3 sequence: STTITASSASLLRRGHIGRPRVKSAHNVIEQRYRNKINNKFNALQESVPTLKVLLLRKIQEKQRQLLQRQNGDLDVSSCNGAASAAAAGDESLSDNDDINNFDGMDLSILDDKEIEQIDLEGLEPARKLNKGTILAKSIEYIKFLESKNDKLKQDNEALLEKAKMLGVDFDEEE

CaCph2 DBD = target: T4, CaCph2 DBD (Candida albicans, UniProt Q59RL7 197-302); assay: competition; little if any discrimination from N3; Standard EMSA buffer (composition by reference), 90 min, room temperature, 6% polyacrylamide gel in 0.5x TGE; pH and salt not given; details: protein: recombinant; tags: N-terminal 6xHis or 6xHis-MBP (primers: pLIC-H3); chain copies: 2; label: 32P
T4 sequence: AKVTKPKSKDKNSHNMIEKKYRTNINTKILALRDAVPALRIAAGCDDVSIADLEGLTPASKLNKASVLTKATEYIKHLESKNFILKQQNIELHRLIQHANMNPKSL

Question: Which results are given for palindromic canonical E-box fragment?
Answer: binding signal (fold weaker than N1) (AfSrbA DBD [1]): > 10; binding signal (fold weaker than N1) (CaHms1 DBD [2]): > 10

B1: non-palindromic site fragment (HMS1 cognate site) (dsDNA)
DNA 1: ACAAAAAAAAATCAGGCCATTTGTAATACT
DNA 2: AGTATTACAAATGGCCTGATTTTTTTTTGT
Question: What does the source list for B1?
Answer: binding result (AfSrbA DBD [3]): binds; binding result (CaHms1 DBD [4]): binds; binding result (CpHms1 DBD): binds; binding result (CaCph2 DBD): binds
